Assay results: publication PMC10234410, “Regulation of intestinal stem cell activity by a mitotic cell cycle regulator Polo in Drosophila”

B1: F2-4-3 wild-type probe (dsDNA)
DNA 1: GAATTTGTTGTTCAACACTCAACAAAATACCGCGATACATACCAGAAAGTGTGCGATAGC
DNA 2: GCTATCGCACACTTTCTGGTATGTATCGCGGTATTTTGTTGAGTGTTGAACAACAAATTC
B2: F2-4-3 mutant probe (dsDNA)
DNA 1: GAACGCACGAGCAGACACTCAACAAAATACCGCGATACATACCAGAAAGTGTGCGATAGC
DNA 2: GCTATCGCACACTTTCTGGTATGTATCGCGGTATTTTGTTGAGTGTCTGCTCGTGCGTTC

Target: Sox21aHMG-BD (Drosophila melanogaster, UniProt M9PFG6 108-208)
Sequence (M9PFG6 entry or part of it): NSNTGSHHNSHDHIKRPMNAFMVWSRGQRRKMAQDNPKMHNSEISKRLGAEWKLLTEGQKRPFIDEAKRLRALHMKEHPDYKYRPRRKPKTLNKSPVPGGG
Experiment: EMSA; 25 mM HEPES pH 7.5, 40 mM KCl, 3 mM DTT, 10% glycerol, 0.1 mM EDTA, 0.5 mg/ml BSA, 0.5 mg/ml poly-glutamate, 25 C, 30 min; 6% native PAGE
Details: protein: recombinant; tags: His-tag at C-terminus (pET-28b); label: Cy5

Binder	binding result
B1	binds
B2	no binding
